The record followed here is US20260184782A1 (published 2026).

B1: hTIGIT (receptor)
chain: MMTGTIETTGNISAEKGGSIILQCHLSSTTAQVTQVNWEQQDQLLAICNADLGWHISPSFKDRVAPGPGLGLTLQSLTVNDTGEYFCIYHTYPDGTYTGRIFLEVLESSVAEHGARFQIP
B1: the Kd (in general, the constant that tells how readily two partners part at equilibrium) was found to be 0.327 µM with TIGIT55-11; 0.153 µM with TIGIT55-06; 0.0976 µM in the assay with TIGIT55-05; 0.112 µM with TIGIT55-13; 0.0159 µM with TIGIT55-01; 0.139 µM with TIGIT55-14.
